# Laboratory results as given in US20230052256A1 (DIZAL JIANGSU PHARMACEUTICAL, published 2023).
# T1: human FGFR2b ECD fused with murine Fc (human)
# T1 construct: The ELISA text says only 'recombinant human FGFR2b-Fc'; also called recombinant human FGFR2b-Fc; hu FGFR2b
# T1 chain: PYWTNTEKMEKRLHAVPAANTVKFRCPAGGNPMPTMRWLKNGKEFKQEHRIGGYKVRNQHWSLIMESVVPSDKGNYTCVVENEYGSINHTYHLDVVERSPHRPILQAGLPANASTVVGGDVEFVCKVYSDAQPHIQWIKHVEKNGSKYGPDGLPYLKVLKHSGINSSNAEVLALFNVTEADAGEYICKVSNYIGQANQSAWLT
# T2: recombinant human FGFR1b-Fc (R&D Systems) (human, UniProt P11362-19 22-376, limits assumed)
# T2 construct: Bought from R&D Systems; also called hFGFR1b-Fc; not shown: human Fc of the bought fusion protein
# T2 sequence (looked up): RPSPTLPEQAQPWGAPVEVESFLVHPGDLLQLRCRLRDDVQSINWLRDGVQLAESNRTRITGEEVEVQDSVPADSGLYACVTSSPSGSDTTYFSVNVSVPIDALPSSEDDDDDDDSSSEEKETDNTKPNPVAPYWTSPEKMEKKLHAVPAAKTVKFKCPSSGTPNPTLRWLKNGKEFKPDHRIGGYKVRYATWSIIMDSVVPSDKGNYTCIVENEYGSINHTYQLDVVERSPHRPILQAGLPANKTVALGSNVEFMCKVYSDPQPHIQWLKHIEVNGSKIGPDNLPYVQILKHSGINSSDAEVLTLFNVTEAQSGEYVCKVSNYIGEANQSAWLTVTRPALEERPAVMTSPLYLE
# T3: recombinant human FGFR4-Fc (R&D Systems) (human, UniProt P22455 22-369)
# T3 construct: Bought from R&D Systems; not shown: human Fc of the bought fusion protein
# T3 sequence (looked up): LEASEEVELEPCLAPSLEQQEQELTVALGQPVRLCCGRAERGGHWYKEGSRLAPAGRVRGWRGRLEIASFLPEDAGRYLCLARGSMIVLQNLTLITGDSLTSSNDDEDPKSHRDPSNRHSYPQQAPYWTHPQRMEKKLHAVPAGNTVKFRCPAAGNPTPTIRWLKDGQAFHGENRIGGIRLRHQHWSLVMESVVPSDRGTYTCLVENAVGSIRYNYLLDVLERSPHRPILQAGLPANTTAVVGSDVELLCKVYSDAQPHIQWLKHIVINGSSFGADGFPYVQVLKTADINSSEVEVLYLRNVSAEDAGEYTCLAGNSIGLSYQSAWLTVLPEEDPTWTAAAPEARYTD
# T4: recombinant human FGFR3b-Fc (R&D Systems) (human, UniProt P22607-2 23-377)
# T4 construct: Bought from R&D Systems; not shown: human Fc of the bought fusion protein
# T4 sequence (looked up): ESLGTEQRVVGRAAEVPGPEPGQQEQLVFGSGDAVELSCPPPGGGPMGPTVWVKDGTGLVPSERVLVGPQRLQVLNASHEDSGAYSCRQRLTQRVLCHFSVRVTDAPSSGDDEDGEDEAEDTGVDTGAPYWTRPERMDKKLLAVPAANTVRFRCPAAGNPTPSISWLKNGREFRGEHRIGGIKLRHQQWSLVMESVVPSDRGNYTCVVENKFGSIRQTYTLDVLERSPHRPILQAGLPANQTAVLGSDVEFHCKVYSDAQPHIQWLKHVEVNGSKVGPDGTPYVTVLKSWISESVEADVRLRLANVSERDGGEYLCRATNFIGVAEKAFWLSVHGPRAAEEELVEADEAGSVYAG
# B1: Ab 26c (chimeric antibody based on Ab 26) (antibody, V domains shown)
# VH: DVHLQESGPGLVKPSQSLSLTCSVTGYSITSGYYWNWIRQFPGNKLEWMGYITYDGSNNYNPSLKNRLSITRDTSKNQFFLQLSSLTTEDTATYFCARVYYYGSGNFDVWGTGTTVTVSS
# VL: SIVMTQTPKILLVSAGDRVTITCKASQSVSNDVAWYQQKPGQSPKLLIYYASNRYTGVPDRFTGSGYGTDFTFTISTVQAEDLAVYFCHQDHTSPFTFGSGTKLEIK
# notes: Mouse VH and VL fused to a human heavy chain constant region and a human light chain constant region; also called chimeric Ab26c
# B2: Ab 26 (mouse monoclonal antibody) (antibody, V domains shown)
# VH: B1 VH
# VL: B1 VL
# notes: Mouse hybridoma antibody; also called mouse Ab 26
# Tests used:
# [1] = biological target: T5, human FGFR2b, endogenous, on KATOIII gastric cancer cells (human, UniProt P21802-3 22-822); assay: cell-based or functional assay
# [2] = biological target: T5, human FGFR2b, endogenous, on KATOIII …; assay: flow cytometry on KATOIII cells
# Protocol: To confirm that the selected antibodies can bind to the endogenous forms of FGFR2b on the cell membrane, flow cytometry was performed using FGFR2b expressing KATOIII cells. All antibodies were prepared in PBS buffer with 10% donkey serum (Jackson Immunogen #017-000-121). 500,000 KATOIII cells were incubated with […] of different concentration of anti-FGFR2b antibody for 60 min at 4° C. Cells were washed twice and incubated in 100 μl of 10 μg/ml of 2nd IgG-Alexa488 antibody (Jackson Immunogen #709546149) for 30 minutes at 4° C. in the dark. Cells were washed three times and resuspended with wash buffer and analyzed on a flow cytometer.
# [3] = biological target: T1, human FGFR2b ECD fused with murine Fc; assay: ELISA, plate coated with human FGFR2b-Fc, anti-human IgG HRP
# Protocol: (§1) The cross-species binding of Ab 26c to recombinant cyno, rat/mouse, and human FGFR2b-Fc fusion proteins was conducted with ELISA. In brief, 96-well ELISA plate were coated with about 100 μl/well 0.1 μg/ml recombinant human FGFR2b-Fc, recombinant rat/mouse FGFR2b-Fc, or recombinant cynomolgus FGFR2b-Fc protein in PBS overnight. Then the plate was blocked with 2% BSA in PBS with 0.05% Tween20 and incubation with antibody samples for 60 min at room temperature, and then washed twice in 1×TBST (Cell Signaling Technology, #9997) and followed by incubation with anti-human IgG HRP conjugate for 60 min at a room temperature. HRP activity was detected with tetra-methylbenzidine substrate (Cell Signaling Technology, #7004) and the reaction was stopped with stop solution (Cell Signaling Technology, #7002). The plate was read at 450 nm. […] Ab 26c has the highest binding affinity to rat/mouse FGFR2b, followed by human FGFR2b, and then cynomolgus FGFR2b.
# [4] = biological target: T2, recombinant human FGFR1b-Fc (R&D …); assay: SPR (Biacore T200), hFGFR1b-Fc amine-coupled to CM5 chip, antibody injected
# Protocol: (§2) The binding of antibodies to human FGFR2b or human FGFR1b antigen was determined by surface plasmon resonance (Biacore). Briefly, CM5 sensor chip (GE Healthcare Life Sciences) was firstly activated by a 4 min injection of 1:1 freshly mixture of 50 mM N-hydroxysuccinamide (NHS): 200 mM EDC […]. Then hFGFR2b-Fc or hFGFR1b-Fc was immobilized to activated CM5 sensor chip using Amine Coupling Kit (GE Healthcare Life Sciences) and 1M ethanolamine as the blocking reagent. About 20-30 response units (RU, 1 RU represents the binding of 1 pg of protein per square mm) of antigen protein were captured.
# (§3) Antibodies were diluted in HBS-EP+ running buffer (GE Healthcare Life Sciences) (10 mM HEPES, 150 mM NaCl, 3 mM EDTA, 0.05% surfactant P20, pH 7.4) and injected at serial concentration (0, 6.25, 12.5, 25, 50, 100, 150, 200 nM) and surface regeneration of the CM5 sensor chip were included in each running cycle. The association constant, dissociation constant were calculated with Biacore T200 evaluation software (version 1.0). […] In addition, Ab 26c is distinguished from the antibody FPA144 in terms of FGFR1b binding.
# [5] = biological target: T6, human FGFR2b (beta)-Fc, human Fc fusion (human); assay: SPR (Biacore T200), hFGFR2b-Fc amine-coupled to CM5 chip, antibody injected
# T6 construct: range 65-267; Made in 293F cells; The Biacore and Ab 26 ELISA text says only 'hFGFR2b-Fc' or 'FGFR2b'; also called hFGFR2b-Fc; human FGFR2b-Fc
# Protocol: as §2, §3
# [6] = biological target: T7, rat/mouse FGFR2b ECD fused with murine Fc (rat); assay: ELISA, plate coated with rat/mouse FGFR2b-Fc, anti-human IgG HRP
# T7 construct: also called recombinant rat/mouse FGFR2b-Fc; rat FGFR2b
# Protocol: as §1
# [7] = biological target: T8, cynomolgus FGFR2b-Fc (ECD fused to murine Fc) (cynomolgus monkey); assay: ELISA, plate coated with cynomolgus FGFR2b-Fc, anti-human IgG HRP
# T8 construct: also called recombinant cynomolgus FGFR2b-Fc; cyno FGFR2b
# Protocol: as §1
# [8] = biological target: T2, recombinant human FGFR1b-Fc (R&D …); assay: SPR (Biacore T200), hFGFR1b-Fc amine-coupled to a CM5 chip, antibody injected at 0-200 nM
# Protocol: as §2, §3
# [9] = biological target: T6, human FGFR2b (beta)-Fc, human Fc fusion; assay: SPR (Biacore T200), hFGFR2b-Fc amine-coupled to a CM5 chip, antibody injected at 0-200 nM
# Protocol: as §2, §3
# [10] = biological target: T3, recombinant human FGFR4-Fc (R&D Systems); assay: ELISA on HuFGFR4
# [11] = biological target: T2, recombinant human FGFR1b-Fc (R&D …); assay: ELISA on HuFGFR1b
# [12] = biological target: T6, human FGFR2b (beta)-Fc, human Fc fusion; assay: ELISA on HuFGFR2b
# [13] = biological target: T4, recombinant human FGFR3b-Fc (R&D …); assay: ELISA on HuFGFR3b
# T5 sequence (P21802 other isoform, or with tags, fused parts or gaps): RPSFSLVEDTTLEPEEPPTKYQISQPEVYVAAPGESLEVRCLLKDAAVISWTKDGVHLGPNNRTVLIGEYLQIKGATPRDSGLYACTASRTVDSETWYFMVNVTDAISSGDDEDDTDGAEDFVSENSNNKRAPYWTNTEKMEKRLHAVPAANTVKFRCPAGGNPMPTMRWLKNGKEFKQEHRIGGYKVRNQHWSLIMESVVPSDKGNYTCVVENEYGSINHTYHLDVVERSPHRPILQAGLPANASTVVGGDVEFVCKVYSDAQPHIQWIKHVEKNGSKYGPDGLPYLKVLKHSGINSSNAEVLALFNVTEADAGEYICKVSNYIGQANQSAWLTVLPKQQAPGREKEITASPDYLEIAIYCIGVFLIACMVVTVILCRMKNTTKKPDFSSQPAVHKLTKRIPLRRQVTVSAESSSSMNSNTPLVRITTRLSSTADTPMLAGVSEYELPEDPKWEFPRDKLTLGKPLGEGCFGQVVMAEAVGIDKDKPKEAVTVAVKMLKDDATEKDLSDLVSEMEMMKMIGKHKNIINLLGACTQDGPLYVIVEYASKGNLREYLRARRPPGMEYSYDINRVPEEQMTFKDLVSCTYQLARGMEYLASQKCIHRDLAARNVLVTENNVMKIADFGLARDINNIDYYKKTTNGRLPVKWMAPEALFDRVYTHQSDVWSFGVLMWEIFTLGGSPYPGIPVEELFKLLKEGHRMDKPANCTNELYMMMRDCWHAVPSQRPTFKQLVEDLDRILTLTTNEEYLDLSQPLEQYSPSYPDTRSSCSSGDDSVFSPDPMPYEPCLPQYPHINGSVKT
Binder,"ADCC EC50, KATOIII target cells with human NK effector cells (E/T 8:1) [1] [µg/mL]",EC50 [2] [nM],EC50 (read off the curve) [3] [nM],Kd [4] [nM],Kd [5] [nM],EC50 (read off the curve) [6] [nM],EC50 (read off the curve) [7] [nM],koff [8] [s⁻¹],kon [8] [M⁻¹ s⁻¹],koff [9] [s⁻¹],kon [9] [M⁻¹ s⁻¹],binding result [10],EC50 (read off the curve) [11] [nM],EC50 (read off the curve) [12] [nM],binding result [13]
B1,0.034,~3,~0.2,3.21,1.68,~0.2,~0.6,0.000552,172000,0.00017,101000,–,–,–,–
B2,–,–,–,–,–,–,–,–,–,–,–,no binding (tested: about 10^-7.3 M (about 5e-8 M)),~0.1,~0.08,no binding (tested: about 10^-7.3 M (about 5e-8 M))
